From US12006361 (SONNET BIOTHERAPEUTICS, dated 2024)

Experiments:
Assay in all cases: biopanning and SPR screening
human TGFβ1 = biological target: T1, human TGFβ1 (human, UniProt P01137 279-390)
T1 construct: also called hTGFβ1; hTGFβ-1

human TGFβ2 = biological target: T2, human TGFβ2 (human, UniProt P61812 303-414)
T2 construct: also called hTGFβ2
T2 sequence (looked up): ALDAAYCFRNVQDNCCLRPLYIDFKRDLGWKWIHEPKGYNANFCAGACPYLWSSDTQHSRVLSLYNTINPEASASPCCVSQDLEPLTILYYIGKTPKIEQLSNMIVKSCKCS

human TGFβ3 = biological target: T3, human TGFβ3 (human, UniProt P10600 301-412)
T3 construct: also called hTGFβ3
T3 sequence (looked up): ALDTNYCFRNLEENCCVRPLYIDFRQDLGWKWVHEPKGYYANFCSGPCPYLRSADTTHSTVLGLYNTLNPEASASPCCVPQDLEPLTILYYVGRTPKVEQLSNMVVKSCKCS

mouse TGFβ1 = biological target: T4, mouse TGFβ1 (mouse, UniProt P04202 279-390)
T4 construct: also called mTGFβ1; mTGFβ-1

Measured: binding result

T1 sequence (P01137 279-390 limits assumed): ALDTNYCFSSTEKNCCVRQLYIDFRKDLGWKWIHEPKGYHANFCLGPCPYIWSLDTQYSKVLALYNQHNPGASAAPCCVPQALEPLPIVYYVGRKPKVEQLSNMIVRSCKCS
T4 sequence (P04202 279-390 limits assumed): as the sequence (P01137 279-390 limits assumed) above, with A75S counted along it

B1: 4H7 (scFv)
scFv: QVQLVESGGGLVKPGRSLRLSCAASGFTFSSYAMHWVRQAPGKGLEWVAVISYDGSNKYYADSVKGRFTISRDNSKNTLYLQMNSLRAEDTAVYYCAKEMRYCSGGSCYPYAYYMDVWGQGTTVTVSSASTGGGGSGGGGSGGGGSVHSSSELTQDPAVSVALGQTVRITCQGDSLRSYYASWYQQKPGQAPVLVIYGKNNRPSGIPDRFSGSSSGNTASLTITGAQAEDEADYYCNSRDSSGNLVVFGGGTKLTVLGLGG
notes: also called anti-TGFβ-1 scFv 4H7
binds: all assays above
